# Data from patent US20080081903A1, “METHOD FOR SCREENING TRANSCRIPTIONAL COREGULATORY PROTEINS OF TRANSCRIPTION FACTORS, AND ANDROGEN RECEPTOR TRANSCRIPTIONAL COREGULATORY PROTEINS AS TARGETS FOR ANDROGEN RECEPTOR-DEPENDENT DISEASES” (NEW YORK UNIVERSITY, priority 2001, published 2008).
# T1: androgen receptor N-terminus (AR18-500) (Rattus norvegicus, UniProt P15207)
# T1 construct: receptor residues 18 through 500 (using the rat androgen receptor number scheme); expressed in transfected cells; host or cells: Saccharomyces cerevisiae EGY188
# T1 sequence (P15207 18-500): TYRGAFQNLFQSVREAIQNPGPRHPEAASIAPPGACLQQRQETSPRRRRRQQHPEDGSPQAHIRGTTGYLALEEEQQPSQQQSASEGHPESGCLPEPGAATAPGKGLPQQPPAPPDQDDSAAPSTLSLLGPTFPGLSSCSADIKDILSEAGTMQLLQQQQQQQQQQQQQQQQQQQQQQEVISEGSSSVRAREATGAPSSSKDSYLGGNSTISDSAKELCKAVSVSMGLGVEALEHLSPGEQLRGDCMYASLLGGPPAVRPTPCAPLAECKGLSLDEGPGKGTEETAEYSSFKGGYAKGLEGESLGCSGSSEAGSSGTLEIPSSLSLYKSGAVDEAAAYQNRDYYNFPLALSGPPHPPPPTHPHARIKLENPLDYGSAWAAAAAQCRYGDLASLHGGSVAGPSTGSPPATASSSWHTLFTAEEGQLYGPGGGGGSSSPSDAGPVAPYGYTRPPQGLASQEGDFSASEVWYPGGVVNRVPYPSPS
# T2: androgen receptor (AR) N-terminus (18-500) (Rattus norvegicus, UniProt P15207)
# T2 construct: receptor residues 18 through 500 (using the rat androgen receptor number scheme); expressed in transfected cells; host or cells: Saccharomyces cerevisiae EGY188
# T2 sequence (P15207 18-500): T1 sequence (P15207 18-500)
# T3: androgen receptor ligand-binding domain (579-901) (Rattus norvegicus, UniProt P15207)
# T3 construct: expressed in transfected cells; host or cells: yeast (modified two-hybrid assay)
# T3 sequence (P15207 579-901): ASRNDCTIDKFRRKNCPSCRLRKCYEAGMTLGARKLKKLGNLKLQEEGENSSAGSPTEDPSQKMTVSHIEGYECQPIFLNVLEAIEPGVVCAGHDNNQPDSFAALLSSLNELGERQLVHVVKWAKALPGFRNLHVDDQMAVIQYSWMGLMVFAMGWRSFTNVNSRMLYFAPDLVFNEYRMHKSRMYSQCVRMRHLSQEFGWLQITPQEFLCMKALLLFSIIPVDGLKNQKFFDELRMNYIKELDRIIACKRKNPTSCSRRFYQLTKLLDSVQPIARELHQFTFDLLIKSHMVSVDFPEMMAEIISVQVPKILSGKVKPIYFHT
# B1: ART-37: Androgen Receptor Trapped protein, SEQ ID NO:6, unknown function, represented in EST database (protein)
# chain: EFGTRARFTRGKSALLERALARPRTEVSLSAFALLSPSWYSTARAVFSVAELQSRLAALGRQVGARVLDALVAREKGARRETKVLGALLFVKGAVWKALFGKEADKLEQANDDARTFYIIEREPLINTYISVPKENSTLNCASFTAGIVEAVLTHSGFPAKVTAHWHKGTTLMIKFEEAVIARDRLEGR
# modifications: Human
# Columns and labels:
# [1] = target: T1, androgen receptor N-terminus (AR18-500); assay: Modified yeast two-hybrid, quantitative liquid beta-galactosidase assay; format: binding; conditions: LexA-ART fusions vs AR18-500; twelve hour incubation in galactose-containing media
# Procedure: (§1) The modified yeast two hybrid assay is described in Hittelman et al., 1999. EGY188 was transformed by the lithium acetate method with (i) pJG4-5:AR18-500, (ii) pEG202:LNCaP cell cDNA library and (iii) pJK103, a β-galactosidase reporter gene with a single LexA operator. Potential interacting proteins were selected by plating the cDNA library expressing transformants onto galactose plates lacking leucine and containing X-gal.
# Yeast were grown in selective liquid media containing 2% glucose for approximately 12 hours, pelleted, washed once with sterile H2O, normalized according to cell number and resuspended to an optical density (OD600) of 0.15 in 2% galactose/1% raffinose. β-galactosidase assays were performed 12 hours later as described previously (Garabedian et al., 1992).
# Out of approximately one million library transformants, eight clones were isolated that interact with the androgen receptor N-terminus. There protein factors were termed ARTs, for Androgen Receptor Trapped, by the present inventors. The eight ART clones were sequenced and were subjected to a database search using the BLAST program. A quantitative liquid beta-galactosidase assay was used to measure the relative strength of interaction between the androgen receptor N-terminus and the ARTs using the yeast two-hybrid system. The levels of expression of the ARTs in yeast were similar, as determined by immunoblotting using an antibody to the LexA DNA-binding domain that is common to all of the ARTs.
# ARTs expressed as fusion proteins with the LexA DNA binding domain were analyzed for their ability to interact with AR18-500. The relative strength of interaction was determined by a quantitative liquid beta-galactosidase assay after a twelve hour incubation in galactose-containing media at 30EC. The LexA vector alone gives 1 unit of activity.
# [2] = target: T2, androgen receptor (AR) N-terminus (18-500); assay: Modified yeast two-hybrid, qualitative plate beta-galactosidase assay; format: binding; conditions: AR N-terminus, AR LBD, Sp1A, Sp1B, CREB, TAFII130, GR AF1, SRC-1
# Source text: as §1
# To analyze the specificity of ART interaction, the capacity of the strongest androgen receptor N-terminus-interacting factors to associate with a panel of transcriptional regulatory proteins in the modified yeast two-hybrid assay was examined. ART-5, ART-27, and ART-37 were tested for interaction with Sp1A (Sp183-262), Sp1B (Sp1263-524) the cyclic AMP response element binding protein (CREB3-296), TBP-associated factor 130 (TAFII130270-700), the glucocorticoid receptor AF1 (GR107-237), and the steroid receptor coactivator-1 (SRC-1374-800).
# The strength of interaction was determined by a qualitative plate beta-galactosidase assay after a 24 hour incubation on galactose X-gal plates at 301 C.
# ART-27 derivatives containing amino acids 1-45, 1-67, 1-127, 46-157, 68-157, 127-157, 1-157, and 1-45/127-157 were expressed as fusion proteins with LexA. These derivatives were tested for their ability to interact with the androgen receptor N-terminus (AR18-500). The strength of interaction was determined by a qualitative plate beta-galactosidase assay after a 24 hour incubation on galactose X-gal plates at 301 C.
# [3] = target: T3, androgen receptor ligand-binding domain (579-901); assay: Modified yeast two-hybrid specificity panel; conditions: absence or presence of hormone
relative strength of interaction with androgen receptor N-terminus [1],specificity of interaction among panel of transcriptional regulatory factors [2],interaction with androgen receptor ligand binding domain [3],Molecule
Weak,–,–,"ART-2: Androgen Receptor Trapped protein, SEQ ID NO:10, present in the EST database (EFGTRIHCPHNPRPTRRSTDHSISPSIDPHLQISHQQPTNHHPTMTNQTNLKTNDNHTQH; Human)"
Intermediate strength,–,–,"ART-6: Androgen Receptor Trapped protein, SEQ ID NO:8, an EST (EFGTRLKPYVSYLAPESEETPLTAAQLFSKPLAPCHRKGLQG; Human)"
Weak,–,–,"ART-9: corresponds to ZNF160, a zinc finger containing protein of unknown function"
strongest,relatively promiscuous,No interaction,B1
